Changes are numbered by the printed parent chain. In names and notes the source's numbering stands. One block for each binder: values may come before it.
How the values were obtained:
[1] = target: T1, IL-2 receptor of the human CD4 positive T cell clone 3F8 (expresses CD25 and CD122) (human, UniProt P01589 22-272; P14784 27-551); assay: cell-based or functional assay
T1 sequence 1: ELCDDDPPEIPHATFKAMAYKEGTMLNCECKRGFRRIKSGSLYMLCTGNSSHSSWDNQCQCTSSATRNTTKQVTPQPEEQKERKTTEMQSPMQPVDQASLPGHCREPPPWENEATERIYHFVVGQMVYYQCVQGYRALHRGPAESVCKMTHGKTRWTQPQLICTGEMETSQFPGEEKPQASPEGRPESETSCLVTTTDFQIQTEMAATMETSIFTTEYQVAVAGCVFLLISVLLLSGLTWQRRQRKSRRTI
T1 sequence 2: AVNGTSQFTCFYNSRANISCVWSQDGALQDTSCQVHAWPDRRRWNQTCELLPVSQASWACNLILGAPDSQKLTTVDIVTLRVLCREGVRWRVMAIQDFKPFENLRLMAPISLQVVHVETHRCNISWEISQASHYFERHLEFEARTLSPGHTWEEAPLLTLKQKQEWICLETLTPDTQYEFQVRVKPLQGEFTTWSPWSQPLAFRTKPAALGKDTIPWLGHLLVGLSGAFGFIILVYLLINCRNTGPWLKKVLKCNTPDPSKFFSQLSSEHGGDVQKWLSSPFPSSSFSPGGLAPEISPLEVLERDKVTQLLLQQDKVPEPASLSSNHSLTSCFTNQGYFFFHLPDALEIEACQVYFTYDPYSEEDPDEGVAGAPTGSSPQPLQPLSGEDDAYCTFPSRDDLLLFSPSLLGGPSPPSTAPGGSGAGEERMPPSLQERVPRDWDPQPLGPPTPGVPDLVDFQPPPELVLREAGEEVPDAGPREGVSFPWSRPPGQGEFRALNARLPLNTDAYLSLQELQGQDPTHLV

[2] = target: T2, human high affinity trimeric IL-2 receptor (CD25/CD122/CD132) (human, UniProt P01589 22-272; P14784 27-551; P31785 23-369); assay: cell-based or functional assay
T2 sequence 1: T1 sequence 1
T2 sequence 2: T1 sequence 2
T2 sequence 3: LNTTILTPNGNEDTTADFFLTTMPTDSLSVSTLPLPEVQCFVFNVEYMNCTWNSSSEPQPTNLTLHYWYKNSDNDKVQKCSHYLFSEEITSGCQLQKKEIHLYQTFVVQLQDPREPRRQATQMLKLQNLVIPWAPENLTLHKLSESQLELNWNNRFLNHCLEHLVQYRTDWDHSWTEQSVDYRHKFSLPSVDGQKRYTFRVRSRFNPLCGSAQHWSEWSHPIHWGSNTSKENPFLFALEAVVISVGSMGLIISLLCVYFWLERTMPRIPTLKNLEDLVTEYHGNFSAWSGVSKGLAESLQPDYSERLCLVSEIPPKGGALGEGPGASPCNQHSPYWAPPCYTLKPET

B4: RHH (ligand)
cytokine: APTSSSTKKTQLQLEHLRLDLHMILNGINNYKNPKLTRMLTFKFYMPKKATELKHLQCLEEELKPLEEVLNLAQSKNFHLRPRDLISNINVIVLELKGSETTFMCEYADETATIVEFLNRWITFCHSIISTLT
pSTAT5 ratio YT CD25/YT, dilution factor 2, lower table [2]: 2
pSTAT5 ratio YT CD25/YT, dilution factor 4, lower table [2]: 2
pSTAT5 ratio YT CD25/YT, dilution factor 8, lower table [2]: 2.7
pSTAT5 ratio YT CD25/YT, dilution factor 16, lower table [2]: 3.9
pSTAT5 ratio YT CD25/YT, dilution factor 32, lower table [2]: 6.3
pSTAT5 ratio YT CD25/YT, dilution factor 64, lower table [2]: 10.6
pSTAT5 ratio YT CD25/YT, dilution factor 128, lower table [2]: 16

B7: RKH (ligand)
cytokine: B4 cytokine with H22K
pSTAT5 ratio YT CD25/YT, dilution factor 2, lower table [2]: 1
pSTAT5 ratio YT CD25/YT, dilution factor 4, lower table [2]: 1.1
pSTAT5 ratio YT CD25/YT, dilution factor 8, lower table [2]: 1.8
pSTAT5 ratio YT CD25/YT, dilution factor 16, lower table [2]: 3
pSTAT5 ratio YT CD25/YT, dilution factor 32, lower table [2]: 5.5
pSTAT5 ratio YT CD25/YT, dilution factor 64, lower table [2]: 8.1
pSTAT5 ratio YT CD25/YT, dilution factor 128, lower table [2]: 11

B9: AEH (ligand)
cytokine: B4 cytokine with R18A, H22E
pSTAT5 ratio YT CD25/YT, dilution factor 2, upper table [2]: 1.3
pSTAT5 ratio YT CD25/YT, dilution factor 4, upper table [2]: 2.6
pSTAT5 ratio YT CD25/YT, dilution factor 8, upper table [2]: 5.7
pSTAT5 ratio YT CD25/YT, dilution factor 16, upper table [2]: 9.7
pSTAT5 ratio YT CD25/YT, dilution factor 32, upper table [2]: 14.1
pSTAT5 ratio YT CD25/YT, dilution factor 64, upper table [2]: 16.6
pSTAT5 ratio YT CD25/YT, dilution factor 128, upper table [2]: 17.9

B10: RFH (ligand)
cytokine: B4 cytokine with H22F
pSTAT5 ratio YT CD25/YT, dilution factor 2, lower table [2]: 0.7
pSTAT5 ratio YT CD25/YT, dilution factor 4, lower table [2]: 0.8
pSTAT5 ratio YT CD25/YT, dilution factor 8, lower table [2]: 1.3
pSTAT5 ratio YT CD25/YT, dilution factor 16, lower table [2]: 2.5
pSTAT5 ratio YT CD25/YT, dilution factor 32, lower table [2]: 4.3
pSTAT5 ratio YT CD25/YT, dilution factor 64, lower table [2]: 7.4
pSTAT5 ratio YT CD25/YT, dilution factor 128, lower table [2]: 10.6

B11: RMH (ligand)
cytokine: B4 cytokine with H22M
pSTAT5 ratio YT CD25/YT, dilution factor 2, lower table [2]: 0.6
pSTAT5 ratio YT CD25/YT, dilution factor 4, lower table [2]: 0.8
pSTAT5 ratio YT CD25/YT, dilution factor 8, lower table [2]: 1.1
pSTAT5 ratio YT CD25/YT, dilution factor 16, lower table [2]: 1.4
pSTAT5 ratio YT CD25/YT, dilution factor 32, lower table [2]: 2.3
pSTAT5 ratio YT CD25/YT, dilution factor 64, lower table [2]: 3.9
pSTAT5 ratio YT CD25/YT, dilution factor 128, lower table [2]: 5.1

B12: RDH (ligand)
cytokine: B4 cytokine with H22D
pSTAT5 ratio YT CD25/YT, dilution factor 2, lower table [2]: 1.7
pSTAT5 ratio YT CD25/YT, dilution factor 4, lower table [2]: 1.8
pSTAT5 ratio YT CD25/YT, dilution factor 8, lower table [2]: 2.1
pSTAT5 ratio YT CD25/YT, dilution factor 16, lower table [2]: 2.2
pSTAT5 ratio YT CD25/YT, dilution factor 32, lower table [2]: 2.9
pSTAT5 ratio YT CD25/YT, dilution factor 64, lower table [2]: 4.4
pSTAT5 ratio YT CD25/YT, dilution factor 128, lower table [2]: 7

B13: RIH (ligand)
cytokine: B4 cytokine with H22I
pSTAT5 ratio YT CD25/YT, dilution factor 2, lower table [2]: 1.1
pSTAT5 ratio YT CD25/YT, dilution factor 4, lower table [2]: 1.5
pSTAT5 ratio YT CD25/YT, dilution factor 8, lower table [2]: 2.4
pSTAT5 ratio YT CD25/YT, dilution factor 16, lower table [2]: 3.8
pSTAT5 ratio YT CD25/YT, dilution factor 32, lower table [2]: 6
pSTAT5 ratio YT CD25/YT, dilution factor 64, lower table [2]: 8.4
pSTAT5 ratio YT CD25/YT, dilution factor 128, lower table [2]: 11.5

B16: GEH (ligand)
cytokine: B4 cytokine with R18G, H22E
pSTAT5 ratio YT CD25/YT, dilution factor 2, upper table [2]: 1.5
pSTAT5 ratio YT CD25/YT, dilution factor 4, upper table [2]: 3.5
pSTAT5 ratio YT CD25/YT, dilution factor 8, upper table [2]: 7.2
pSTAT5 ratio YT CD25/YT, dilution factor 16, upper table [2]: 13.2
pSTAT5 ratio YT CD25/YT, dilution factor 32, upper table [2]: 16.2
pSTAT5 ratio YT CD25/YT, dilution factor 64, upper table [2]: 17.5
pSTAT5 ratio YT CD25/YT, dilution factor 128, upper table [2]: 18.8

B17: MEH (ligand)
cytokine: B4 cytokine with R18M, H22E
pSTAT5 ratio YT CD25/YT, dilution factor 2, upper table [2]: 0.9
pSTAT5 ratio YT CD25/YT, dilution factor 4, upper table [2]: 1.2
pSTAT5 ratio YT CD25/YT, dilution factor 8, upper table [2]: 1.2
pSTAT5 ratio YT CD25/YT, dilution factor 16, upper table [2]: 1.4
pSTAT5 ratio YT CD25/YT, dilution factor 32, upper table [2]: 1.8
pSTAT5 ratio YT CD25/YT, dilution factor 64, upper table [2]: 2.7
pSTAT5 ratio YT CD25/YT, dilution factor 128, upper table [2]: 4.5

The next lines start with the values.

IFNγ Production IC50 (pM), 3F8 cells [1]: 21.2 pM
Proliferation IC50 (pM), 3F8 cells [1]: 20.8 pM
B1: hIL2 mutein REV (L18R, Q22E, Q126V) (ligand)
chain: B4 cytokine with H22E, H126V

IFNγ Production IC50 (pM), 3F8 cells [1]: 33.8 pM
Proliferation IC50 (pM), 3F8 cells [1]: 68.4 pM
B2: hIL2 mutein REL (L18R, Q22E, Q126L) (ligand)
chain: B4 cytokine with H22E, H126L

IFNγ Production IC50 (pM), 3F8 cells [1]: 15.7 pM
Proliferation IC50 (pM), 3F8 cells [1]: 13.7 pM
B3: hIL2 mutein REN (L18R, Q22E, Q126N) (ligand)
chain: B4 cytokine with H22E, H126N

pSTAT5 ratio YT CD25/YT, dilution factor 2, lower table [2]: 2.3
pSTAT5 ratio YT CD25/YT, dilution factor 4, lower table [2]: 2.8
pSTAT5 ratio YT CD25/YT, dilution factor 8, lower table [2]: 3.8
pSTAT5 ratio YT CD25/YT, dilution factor 16, lower table [2]: 6.5
pSTAT5 ratio YT CD25/YT, dilution factor 32, lower table [2]: 10.3
pSTAT5 ratio YT CD25/YT, dilution factor 64, lower table [2]: 14.6
pSTAT5 ratio YT CD25/YT, dilution factor 128, lower table [2]: 19
B5: RRH (ligand)
cytokine: B4 cytokine with H22R

pSTAT5 ratio YT CD25/YT, dilution factor 2, lower table [2]: 2.1
pSTAT5 ratio YT CD25/YT, dilution factor 4, lower table [2]: 2
pSTAT5 ratio YT CD25/YT, dilution factor 8, lower table [2]: 2.6
pSTAT5 ratio YT CD25/YT, dilution factor 16, lower table [2]: 3.6
pSTAT5 ratio YT CD25/YT, dilution factor 32, lower table [2]: 5.2
pSTAT5 ratio YT CD25/YT, dilution factor 64, lower table [2]: 7.7
pSTAT5 ratio YT CD25/YT, dilution factor 128, lower table [2]: 13
B6: RNH (ligand)
cytokine: B4 cytokine with H22N

pSTAT5 ratio YT CD25/YT, dilution factor 2, lower table [2]: 0.9
pSTAT5 ratio YT CD25/YT, dilution factor 4, lower table [2]: 2.2
pSTAT5 ratio YT CD25/YT, dilution factor 8, lower table [2]: 3.4
pSTAT5 ratio YT CD25/YT, dilution factor 16, lower table [2]: 5.5
pSTAT5 ratio YT CD25/YT, dilution factor 32, lower table [2]: 8.7
pSTAT5 ratio YT CD25/YT, dilution factor 64, lower table [2]: 11.8
pSTAT5 ratio YT CD25/YT, dilution factor 128, lower table [2]: 10.5
B8: RYH (ligand)
cytokine: B4 cytokine with H22Y

pSTAT5 ratio YT CD25/YT, dilution factor 2, lower table [2]: 0.9
pSTAT5 ratio YT CD25/YT, dilution factor 4, lower table [2]: 0.9
pSTAT5 ratio YT CD25/YT, dilution factor 8, lower table [2]: 1.4
pSTAT5 ratio YT CD25/YT, dilution factor 16, lower table [2]: 1.9
pSTAT5 ratio YT CD25/YT, dilution factor 32, lower table [2]: 3.3
pSTAT5 ratio YT CD25/YT, dilution factor 64, lower table [2]: 5.3
pSTAT5 ratio YT CD25/YT, dilution factor 128, lower table [2]: 8
B14: RVH (ligand)
cytokine: B4 cytokine with H22V

pSTAT5 ratio YT CD25/YT, dilution factor 2, lower table [2]: 0.8
pSTAT5 ratio YT CD25/YT, dilution factor 4, lower table [2]: 0.8
pSTAT5 ratio YT CD25/YT, dilution factor 8, lower table [2]: 1.2
pSTAT5 ratio YT CD25/YT, dilution factor 16, lower table [2]: 2
pSTAT5 ratio YT CD25/YT, dilution factor 32, lower table [2]: 3
pSTAT5 ratio YT CD25/YT, dilution factor 64, lower table [2]: 5
pSTAT5 ratio YT CD25/YT, dilution factor 128, lower table [2]: 9.1
B15: RWH (ligand)
cytokine: B4 cytokine with H22W

pSTAT5 ratio YT CD25/YT, dilution factor 2, lower table [2]: 2.3
pSTAT5 ratio YT CD25/YT, dilution factor 4, lower table [2]: 1.9
pSTAT5 ratio YT CD25/YT, dilution factor 8, lower table [2]: 2.6
pSTAT5 ratio YT CD25/YT, dilution factor 16, lower table [2]: 3.6
pSTAT5 ratio YT CD25/YT, dilution factor 32, lower table [2]: 5.4
pSTAT5 ratio YT CD25/YT, dilution factor 64, lower table [2]: 9.1
pSTAT5 ratio YT CD25/YT, dilution factor 128, lower table [2]: 14.3
B18: RTH (ligand)
cytokine: B4 cytokine with H22T

IFNγ Production IC50 (pM), 3F8 cells [1]: 38.3 pM
Proliferation IC50 (pM), 3F8 cells [1]: 37.6 pM
B19: hIL2 mutein REF (L18R, Q22E, Q126F) (ligand)
chain: B4 cytokine with H22E, H126F

pSTAT5 ratio YT CD25/YT, dilution factor 2, lower table [2]: 1
pSTAT5 ratio YT CD25/YT, dilution factor 4, lower table [2]: 0.9
pSTAT5 ratio YT CD25/YT, dilution factor 8, lower table [2]: 1.1
pSTAT5 ratio YT CD25/YT, dilution factor 16, lower table [2]: 1.8
pSTAT5 ratio YT CD25/YT, dilution factor 32, lower table [2]: 2.8
pSTAT5 ratio YT CD25/YT, dilution factor 64, lower table [2]: 5
pSTAT5 ratio YT CD25/YT, dilution factor 128, lower table [2]: 6.8
B20: RSH (ligand)
cytokine: B4 cytokine with H22S

Source: US20210275641A1 (SYNTHEKINE, published 2021)
